In patent US20250163169:

T1: 43-mer covering the stalk region of CD95L (residue 103 to residue 145)
T1 chain: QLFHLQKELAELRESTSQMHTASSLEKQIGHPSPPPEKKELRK

T2: Recombinant Ig-CD95L
T2 chain: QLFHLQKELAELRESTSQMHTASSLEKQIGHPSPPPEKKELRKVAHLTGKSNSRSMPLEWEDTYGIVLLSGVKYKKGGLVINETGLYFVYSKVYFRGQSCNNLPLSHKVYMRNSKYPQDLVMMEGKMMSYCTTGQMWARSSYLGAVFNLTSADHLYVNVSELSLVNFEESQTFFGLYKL

B1: MMP2 (protein)
chain: YNFFPRKPKWDKNQITYRIIGYTPDLDPETVDDAFARAFQVWSDVTPLRFSRIHDGEADIMINFGRWEHGDGYPFDGKDGLLAHAFAPGTGVGGDSHFDDDELWTLGEGQVVRVKYGNADGEYCKFPFLFNGKEYNSCTDTGRSDGFLWCSTTYNFEKDGKYGFCPHEALFTMGGNAEGQPCKFPFRFQGTSYDSCTTEGRTDGYRWCGTTEDYDRDKKYGFCPETAMSTVGGNSEGAPCVFPFTFLGNKYESCTSAGRSDGKMWCATTANYDDDRKWGFCPDQGYSLFLVAAHEFGHAMGLEHSQDPGALMAPIYTYTKNFRLSQDDIKGIQELYGASPDIDLGTGPTPTLGPVTPEICKQDIVFDGIAQIRGEIFFFKDRFIWRTVTPRDKPMGPLLVATFWPELPEKIDAVYEAPQEEKAVFFAGNEYWIYSASTLERGYPKPLTSLGLPPDVQRVDAAFNWSKNKKTYIFAGDKFWRYNEVKKKMDPGFPKLIADAWNAIPDNLDAVVDLQGGGHSYFFKGAYYLKLENQSLKSVKFGSIKSDWLGC
B2: MMP7 (protein)
chain: YSLFPNSPKWTSKVVTYRIVSYTRDLPHITVDRLVSKALNMWGKEIPLHFRKVVWGTADIMIGFARGAHGDSYPFDGPGNTLAHAFAPGTGLGGDAHFDEDERWTDGSSLGINFLYAATHELGHSLGMGHSSDPNAVMYPTYGNGDPQNFKLSQDDIKGIQKLYGKRSNSRKK
B3: MMP12 (protein)
chain: GPVWRKHYITYRINNYTPDMNREDVDYAIRKAFQVWSNVTPLKFSKINTGMADILVVFARGAHGDFHAFDGKGGILAHAFGPGSGIGGDAHFDEDEFWTTHSGGTNLFLTAVHEIGHSLGLGHSSDPKAVMFPTYKYVDINTFRLSADDIRGIQSLYGDPKENQRLPNPDNSEPALCDPNLSFDAVTTVGNKIFFFKDRFFWLKVSERPKTSVNLISSLWPTLPSGIEAAYEIEARNQVFLFKDDKYWLISNLRPEPNYPKSIHSFGFPNFVKKIDAAVFNPRFYRTYFFVDNQYWRYDERRQMMDPGYPKLITKNFQGIGPKIDAVFYSKNKYYYFFQGSNQFEYDFLLQRITKTLKSNSWFGC
B4: ADAM10 (protein)
chain: TTSAEKNTCQLYIQTDHLFFKYYGTREAVIAQISSHVKAIDTIYQTTDFSGIRNISFMVKRIRINTTADEKDPTNPFRFPNIGVEKFLELNSEQNHDDYCLAYVFTDRDFDDGVLGLAWVGAPSGSSGGICEKSKLYSDGKKKSLNTGIITVQNYGSHVPPKVSHITFAHEVGHNFGSPHDSGTECTPGESKNLGQKENGNYIMYARATSGDKLNNNKFSLCSIRNISQVLEKKRNNCFVESGQPICGNGMVEQGEECDCGYSDQCKDECCFDANQPEGRKCKLKPGKQCSPSQGPCCTAQCAFKSKSEKCRDDSDCAREGICNGFTALCPASDPKPNFTDCNRHTQVCINGQCAGSICEKYGLEECTCASSDGKDDKELCHVCCMKKMDPSTCASTGSVQWSRHFSGRTITLQPGSPCNDFRGYCDVFMRCRLVDADGPLARLKKAIFSPELYENIAE

Columns and labels:
[1] = biological target: T1, 43-mer covering the stalk region of …
Recombinant Ig-CD95L = biological target: T2, Recombinant Ig-CD95L

Protein | percentage of degradation of the 43-mer (LC-MS/MS) [1] | cleavage of Ig-CD95L (western blotting) (Recombinant Ig-CD95L)
B1 | more of 20% of cleavage | Using this Ig-CD95L, we showed that MMP2 and MMP3 can cleave CD95L
B2 | more of 20% of cleavage | 
B3 | more of 20% of cleavage | 
B4 | more of 20% of cleavage | 
